Here are results for one molecule from PMC12107149 (Proceedings of the National Academy of Sciences of the …, 2022).

This test deals with PU.1 DNA-binding domain (PU.1^DBD) (human, UniProt P17947 168-270). Description: NMR titration.

B1: EWS low-complexity domain (EWS^LCD) (domain or fragment)
chain: ASTDYSTYSQAAAQQGYSAYTAQPTQGYAQTTQAYGQQSYGTYGQPTDVSYTQAQTTATYGQTAYATSYGQPPTGYTTPTAPQAYSQPVQGYGTGAYDTTTATVTTTQASYAAQSAYGTQPAYPAYGQQPAATAPTRPQDGNKPTETSQPQSSTGGYNQPSLGYGQSNYSYPQVPGSYPMQPVTAPPSYPPTSYSSTQPTSYDQSSYSQQNTYGQPSSYGQQSSYGQQSSYGQQPPTSYPPQTGSYSQAPSQYSQQSSSYGQQ
As to B1, the binding result was “binds”.
